Laboratory results from patent publication US20060115876A1.
Blank lines part the entries; values can stand above or below the substance they belong to.

Key:
[1] = target: von Willebrand factor (vWF) (UniProt P04275); test: vWF binding ELISA value divided by total antigen ELISA value
[2] = target: von Willebrand factor (vWF) (UniProt P04275); test: vWF binding ELISA (FVIII bound to vWf in severe hemophilic plasma, captured on anti-vWf mAb) divided by total antigen ELISA, relative to BDD
[3] = target: von Willebrand factor (vWF) (UniProt P04275); test: vWF binding ELISA divided by total antigen ELISA
[4] = target: von Willebrand factor (vWF) (UniProt P04275); test: vWF binding ELISA, FVIII bound to vWf in severe hemophilic plasma
[5] = target: von Willebrand factor (vWF) (UniProt P04275); test: vWF binding ELISA divided by total antigen ELISA, relative to starting KG-2
[6] = target: von Willebrand factor (vWF) (UniProt P04275); test: vWF binding ELISA divided by total antigen ELISA, relative to BDD

Chain of B domain deleted FVIII (BDD) (P00451 other isoform, or with tags, fused parts or gaps limits assumed): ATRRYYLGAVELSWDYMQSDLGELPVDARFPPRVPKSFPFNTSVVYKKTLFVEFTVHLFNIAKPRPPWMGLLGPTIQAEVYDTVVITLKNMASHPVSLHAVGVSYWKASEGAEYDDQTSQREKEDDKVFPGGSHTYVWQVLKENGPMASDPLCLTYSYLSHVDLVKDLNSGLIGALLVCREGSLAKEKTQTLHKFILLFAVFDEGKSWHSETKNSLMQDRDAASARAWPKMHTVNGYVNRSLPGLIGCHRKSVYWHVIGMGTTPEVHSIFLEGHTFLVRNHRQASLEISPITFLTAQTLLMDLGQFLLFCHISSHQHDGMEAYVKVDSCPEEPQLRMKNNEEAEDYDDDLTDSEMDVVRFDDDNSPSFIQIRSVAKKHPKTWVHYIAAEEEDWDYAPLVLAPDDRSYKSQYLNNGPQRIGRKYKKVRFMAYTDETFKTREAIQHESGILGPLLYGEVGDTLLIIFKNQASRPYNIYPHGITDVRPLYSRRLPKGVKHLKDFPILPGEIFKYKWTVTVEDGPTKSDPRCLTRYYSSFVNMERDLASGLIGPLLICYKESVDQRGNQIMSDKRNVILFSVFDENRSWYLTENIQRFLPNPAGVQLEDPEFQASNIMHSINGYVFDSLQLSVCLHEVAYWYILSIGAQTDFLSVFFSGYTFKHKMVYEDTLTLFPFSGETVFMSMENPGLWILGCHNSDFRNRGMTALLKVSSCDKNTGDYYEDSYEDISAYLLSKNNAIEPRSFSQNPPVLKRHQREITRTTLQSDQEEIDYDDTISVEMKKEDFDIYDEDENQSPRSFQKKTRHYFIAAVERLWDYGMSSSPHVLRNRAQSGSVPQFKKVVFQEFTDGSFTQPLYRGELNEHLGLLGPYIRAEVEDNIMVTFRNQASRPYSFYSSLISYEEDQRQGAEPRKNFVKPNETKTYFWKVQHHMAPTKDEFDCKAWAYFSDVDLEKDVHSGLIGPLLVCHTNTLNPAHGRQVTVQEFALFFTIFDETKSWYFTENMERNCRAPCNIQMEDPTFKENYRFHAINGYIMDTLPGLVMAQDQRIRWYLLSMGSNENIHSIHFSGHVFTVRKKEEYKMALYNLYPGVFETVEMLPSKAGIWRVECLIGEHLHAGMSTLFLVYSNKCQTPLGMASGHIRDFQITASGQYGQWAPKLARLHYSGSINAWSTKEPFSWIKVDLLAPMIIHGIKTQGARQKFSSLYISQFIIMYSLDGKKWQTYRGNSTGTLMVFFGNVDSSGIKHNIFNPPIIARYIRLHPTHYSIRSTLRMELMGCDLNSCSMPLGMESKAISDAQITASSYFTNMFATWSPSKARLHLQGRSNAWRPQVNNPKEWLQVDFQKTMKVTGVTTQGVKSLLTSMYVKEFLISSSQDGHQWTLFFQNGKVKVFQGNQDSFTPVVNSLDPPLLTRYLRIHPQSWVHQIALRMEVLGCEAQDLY
Chain of PEG2 red (PEG2 mutein treated with reductant followed by removal of reductant) (P00451 other isoform, or with tags, fused parts or gaps mutant): as the sequence (P00451 other isoform, or with tags, fused parts or gaps limits assumed) above, with L491C counted along it

- vWF/TAE (ratio (vWF ELISA ug/mL / TAE ug/mL)) [3]: 0.3
- vWF ELISA (FVIII bound to vWf) [4]: 0.19 µg/mL
- % Start (vWF/TAE) [5]: 94%
Substance: KG-2-22 kD PEG (wildtype full length FVIII PEGylated with 22 kD PEG) (from UniProt P00451 20-2351)

- vWF/TAE (ratio (vWF ELISA ug/mL / TAE ug/mL)) [3]: 0.32
- vWF ELISA (FVIII bound to vWf) [4]: 0.19 µg/mL
- % Start (vWF/TAE) [5]: 100%
Substance: KG-2-30 kD PEG (wildtype full length FVIII PEGylated with 30 kD PEG) (from UniProt P00451 20-2351)

- percent specific activity vWF/TAE relative to BDD [6]: 71%
Substance: PEG2-12 kD PEG (L491C BDD FVIII PEGylated with 12 kD PEG-maleimide) (from UniProt P00451 20-2351)

- percent specific activity vWF/TAE relative to BDD [6]: 57%
Substance: PEG2-43 kD PEG (L491C BDD FVIII PEGylated with 43 kD PEG-maleimide) (from UniProt P00451 20-2351)

- percent specific activity vWF/TAE relative to BDD [6]: 100%
Substance: PEG6 mutein (K1808C BDD FVIII) (from UniProt P00451 20-2351)

- percent specific activity vWF/TAE relative to BDD [6]: 90%
Substance: PEG6-33 kD PEG (K1808C BDD FVIII PEGylated with 33 kD PEG-maleimide) (from UniProt P00451 20-2351)

- vWF/TAE (ratio (vWF ELISA ug/mL / TAE ug/mL)) [3]: 0.32
- vWF ELISA (FVIII bound to vWf) [4]: 0.42 µg/mL
- % Start (vWF/TAE) [5]: 100%
Substance: wildtype full length FVIII (KG-2) (from UniProt P00451 20-2351)

The remaining lines, values behind:

Substance: B domain deleted FVIII (BDD) (from UniProt P00451 20-2351)
- vWF/TAE (specific vWF binding activity) [1]: 1 vWF/TAE
- percent specific activity vWF/TAE relative to BDD [2]: 100%

Substance: PEG2 mutein (L491C BDD FVIII) (from UniProt P00451 20-2351)
- percent specific activity vWF/TAE relative to BDD [6]: 138%

Substance: PEG2 red (PEG2 mutein treated with reductant followed by removal of reductant) (from UniProt P00451 20-2351)
- percent specific activity vWF/TAE relative to BDD [6]: 98%

Substance: PEG2-5 kD PEG (L491C BDD FVIII PEGylated with 5 kD PEG-maleimide) (from UniProt P00451 20-2351)
- percent specific activity vWF/TAE relative to BDD [6]: 125%

Substance: PEG2-22 kD PEG (L491C BDD FVIII PEGylated with 22 kD PEG-maleimide) (from UniProt P00451 20-2351)
- percent specific activity vWF/TAE relative to BDD [6]: 87%

Substance: PEG2-33 kD PEG (L491C BDD FVIII PEGylated with 33 kD PEG-maleimide) (from UniProt P00451 20-2351)
- percent specific activity vWF/TAE relative to BDD [6]: 59%
